Assay results: article PMC4320033 (Nature, 2015)

Molecular target: N-ethylmaleimide Sensitive Factor (NSF), Chinese hamster, full-length, His-tag cleaved, reassembled hexamer (Chinese hamster, UniProt P18708 1-744)
Assay: cryo-EM structure

Chain of N-ethylmaleimide Sensitive Factor (NSF), Chinese hamster, full-length, His-tag cleaved, reassembled hexamer (P18708 whole entry): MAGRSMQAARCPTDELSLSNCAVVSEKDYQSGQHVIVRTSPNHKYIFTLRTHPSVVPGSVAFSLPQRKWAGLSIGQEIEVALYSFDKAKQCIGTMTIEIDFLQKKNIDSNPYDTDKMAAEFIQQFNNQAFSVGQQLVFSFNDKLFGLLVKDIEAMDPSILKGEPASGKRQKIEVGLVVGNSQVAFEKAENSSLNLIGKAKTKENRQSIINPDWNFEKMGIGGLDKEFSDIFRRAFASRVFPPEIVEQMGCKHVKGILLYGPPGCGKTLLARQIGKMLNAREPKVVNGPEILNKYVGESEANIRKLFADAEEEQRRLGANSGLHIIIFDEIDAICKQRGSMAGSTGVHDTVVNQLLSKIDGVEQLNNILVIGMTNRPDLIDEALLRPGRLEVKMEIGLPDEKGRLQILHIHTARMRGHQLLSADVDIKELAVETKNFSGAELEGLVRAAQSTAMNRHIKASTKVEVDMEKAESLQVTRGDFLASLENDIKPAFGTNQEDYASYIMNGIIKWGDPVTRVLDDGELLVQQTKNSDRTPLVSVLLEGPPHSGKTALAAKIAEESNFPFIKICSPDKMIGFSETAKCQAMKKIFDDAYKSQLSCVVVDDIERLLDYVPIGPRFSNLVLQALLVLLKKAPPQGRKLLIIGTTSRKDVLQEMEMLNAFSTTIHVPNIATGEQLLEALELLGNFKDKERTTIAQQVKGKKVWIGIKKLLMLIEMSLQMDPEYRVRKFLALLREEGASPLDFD

B1: αSNAP (Soluble NSF Attachment Protein alpha), rat, wild type (natural protein)
chain: MDTSGKQAEAMALLAEAERKVKNSQSFFSGLFGGSSKIEEACEIYARAANMFKMAKNWSAAGNAFCQAAQLHLQLQSKHDAATCFVDAGNAFKKADPQEAINCLMRAIEIYTDMGRFTIAAKHHISIAEIYETELVDVEKAIAHYEQSADYYKGEESNSSANKCLLKVAGYAAQLEQYQKAIDIYEQVGTSAMDSPLLKYSAKDYFFKAALCHFCIDMLNAKLAVQKYEELFPAFSDSRECKLMKKLLEAHEEQNVDSYTESVKEYDSISRLDQWLTTMLLRIKKTIQGDEEDLR
binding result: binds
